Measured values as given in the DeepSol protein solubility set.

Assay: soluble on expression in E. coli; label from the status in PepcDB or PDB records
With “MNVDEDCYFASLTHGLNTDCRRANAKMKETLKNYNFSAFLVEQNCLRCPNNDCNLSFVLILQKTEFFRLKRDVVFEVRPTIVVHRSFKELVSADRKIRQDITEKNTVGVQASVETVNKFVDACPSICNIQSQTDIMAEKMHIGIQTEEVKFVSEISALGITEVECQNVFPTSFIKTEPVSTSPVRTMEVQQDNDDDDVMFIEIRPRIHEFPSTREIKQEENTTEDTVHLEKVIPEDSVRDVKDEPISEPVEQETSSSSISKELGDSGSSKFSDVADNHTASLNLSMLSQRSTVTSSSISQSIPTPRGRDTPSAAKRAKFSDVEMCRICWDVTFFTTLEEYCNHVQDRHCSVARFKCSSCERKFWDIRSGTQHLKAHNEDGAGNSISHILPEISEEHLSKFINVANQCYPETFRNTQSEKILDIINALP” the “soluble on expression in E. coli” value was “not soluble”. For “MNVLIIEDDPMVDFIHRNYLEKLNLFDRIISSDSMKAVQSILTDYAIDLILLDIHITDGNGIQFLEKWRTQHIPCEVIIISAANDGNIIRDGFHLGIIDYLIKPFTFERFQESIQQFVTHREHLANQQLEQAQIDQLKCLTSKKDTKNKQLLEKGLSESTFQWIMENIKVFDQPFTIQELASACHLSHVSVRKYIAYLEENKQLNSQQIFTKVGRPYRVYW”, the “soluble on expression in E. coli” value was “not soluble”. In the case of “MNVLVIGRGGREHALAWKFAQSEKVEKVYVAPGNEGMRDVATPIDIDENDFDALVLFAKENHVELTFVGPEIPLMNGIVDRFKEEGLRVFGPNKAAAVIEGSKAFTKELMKKYNIPTAAYETFTDYEEAVQYIEKVGAPIVIKADGLAAGKGVTVAMTLEEALQAAKEMLQDVKFGEASKKVVIEEFLDGQEFSLMAFVNGTTVHPMVIAQDHKRAFDGDKGPNTGGMGAYSPVPQISESAVQEAIETVLYPTAKAMIQENRSFTGILYAGLILTNDGPKVIEFNARFGDPETEVVLPRLENDLVDVCNAVLDESELTLQWSDEAVIGVVLAAKGYPEAYKKGDIIKGLDALQDVIVFHAGTAMKRGDFVTNGGRVLFVACKANSLQEAKDKVYKEIGKIESDVLFYRSDIGYRAIGHEMTRS”, the “soluble on expression in E. coli” value is reported as “not soluble”. With “MNVNIDSEQLFTEEKPKDYAQPEVLCHTFELLSNLHKLLPNRTVEVLHSYRSEEDKRKCEKPEFSGIEKILARHQLPKEINLSPKPSHVPSWKRKIINNISGNWKKCRLWQKSIYEPPMGTIIVRWTKKNLQPSEDLKSVIQRLSALGPIISVTPCGRESAVVVFRDAASACKAVSAFQTMSADSMFHCSWQHRFMSKNKTWSRRYPSKIHAEKKEKHP” the “soluble on expression in E. coli” value was “not soluble”. For “MNVSTSTFQTRRRRLKKVEEEENAATLQLGQEFQLKQINHQGEEEELIALNLSEARLVIKEALVERRRAFKRSQKKHKKKHLKHENANDETTAVEDEDDDLDEDDVNADDDDFMHSETREKELESIDVLLEQTTGGNNKDLKNTMQYLTNFSRFRDQETVGAVIQLLKSTGLHPFEVAQLGSLACDTADEAKTLIPSLNNKISDDELERILKELSNLETLY”, the “soluble on expression in E. coli” value was “soluble”. In the case of “MNYGNNGGGQWQPRGNNNWRPQGRGRGGGGWKGNDNRGGYRGGSSNDGGWSNFRDDGNLNFASPYQANRGNFRGNYRGGGGGGGGNQNNYGNRGRGRGGFDRGRGGGGGGNKNFGPIDANKCIIPSMWNNPWDALEKEYEQEYGVAITEKVTDPSPSPSSAEETTA”, the “soluble on expression in E. coli” value is reported as “not soluble”. In the case of “MNYHVYHSIDVVNGPGTRCTLFVSGCEHNCKGCYNKSTLNPNSGHLFTKELEDKIIADLNDTRIPRRGLSLSGGDPLHPMNCESVLKLVKRVKSECENKDIWMWTGYTLSELNPTQKEIVDLIDTLIDGRFEQDKADPSLDWRGSSNQIIHTFNVLLEHHHHHH”, the “soluble on expression in E. coli” value is reported as “not soluble”. For “MNYSLKQLKVFVTVAQEKSFSRAGERIGLSQSAVSHSVKELENHTGVRLLDRTTREVVLTDAGQQLALRLERLLDELNSTLRDTGRMGQQLSGKVRVAASQTISAHLIPQCIAESHRRYPDIQFVLHDRPQQWVMESIRQGDVDFGIVIDPGPVGDLQCEAILSEPFFLLCHRDSALAVEDYVPWQALQGAKLVLQDYASGSRPLIDAALARNGIQANIVQEIGHPATLFPMVAAGIGISILPALALPLPEGSPLVVKRITPVVERQLMLVRRKNRSLSTAAEALWDVVRDQGNALMAGREGDPLYQI”, the “soluble on expression in E. coli” value was “soluble”. For “MPAALIKDFLLTQGLKLPLDEVRAAYLTAQTVMDMGTASIDRSVLWRSDEGWKLADYLSCDNVREDALKRLFMALDSVFSRSTGVRSAAVYALMPSENQAFQLICLSRQGEVLENLWDLDEAAGKVSLACRSAQSGWMNVASDVRRWLDLGELSGERNHASAAQISIPVCTESGGVLGVVHVEFECAECAGTAAQVEWVALALALSEPLKLLLGMSAGKDGSEDV”, the “soluble on expression in E. coli” value was “not soluble”. With “MPADTRPAAIVLMGPTASGKSQLAIDIAKRWGGEVISVDSVLVYRGLDIGTAKPNAAMRASVPHHLIDICEPWETYSAADFAHDARAAIDMIVRRGALPILTGGTGLYFRALLAGLSDMPPAHPEIRAMIAAEAKRDSWAALHTRLAEVDAITAARIHATDPQRIQRALEVYLVSGQSMSDWQNQPPKQRLPLRVLKLVLAPTHRKVLHFRIAQRFKAMLDNGLLAEVNALRTHPSIHAMARPLDLPAMRAVGYRQCWEHLDGMYTAEMLYQRSVAATRQLAKRQLTWLRGELDALWFDPEHDQSRIEKVMEAFLNRLEHHHHHH” the “soluble on expression in E. coli” value was “not soluble”. In the case of “MPAGFTHFRLVTRNNMKSLTTETALDILIAWLQDNIDCGSGIIFDNDEDKTDSAALLPCIEQAREDVRTLRHLQLLHQNR”, the “soluble on expression in E. coli” value is reported as “soluble”. In the case of “MPALDLIRPSVTAMRVIASVNAEFARELKLPPHIRSLGLISADSDDVTYIAADEATKQAMVEVVYGRSLYAGAAHGPSPTAGEVLIMLGGPNPAEVRAGLDAMVANIENGAAFQWANDAENTAFLAHVVSRTGSYLSSTAGITLGDPMAYLVAPPLEATYGIDAALKSADVQLVTYVPPPSETNYSAAFLTGSQAACKAACNAFTDAVLEIARNPIQRA”, the “soluble on expression in E. coli” value is reported as “not soluble”. For “MPATTSIPPVTAPGTGGEASSFNVDELIQYVLQGKPLSEPQVARLCQKAREVLEKEENVHTVRAPVTVCGDIHGQFHDLLELLKIGGLPPDTNYLFMGDYVDRGYYSVETVTLLLLFKIRYPERVQILRGNHESRQITQVYGFYDECVRKYGSANVWKLLTDLFDYLPLAAVVENEIFCLHGGLSPTLDSLAHIRSLERVQEVPHEGPMCDLLWSDPEDKDGWGISPRGAGFTFGADITEQFCHNNGLKTIARAHQLVAEGYSWAHSDKLVTIFSAPNYCYRCGNLAGLLELDEHMNKCFFQFDPAPRRGEAQVSKKTPDYFL”, the “soluble on expression in E. coli” value was “not soluble”. For “MPDDKAVNGRRDFLRKTLTVIPAVTLAGYGVGHAMQTPAAEQDKPRERYQPRFFTNTEWAFVNAAVARLIPSDDNGPGAIEAGVPEFIDRQMETPYGHGALWYMQGPFVTDAAPEFGHQLKLVPRDIYRVGIAALERWSKANQGKPFAELEPSAQDDILQRLEAGQIDLQDLPAKLLFGQLLQNTHEGFFSDPQHGGNRGLVGWKLVGFPGARADFMDWADRGEKYPFPPVAISGERG”, the “soluble on expression in E. coli” value was “not soluble”. For “MPDGDFITLDRVEKVFDVRRKTGFLRSERRRVRAVDSLSFTVARGEMVGYIGPNGAGKSTTIKMLTGILTPSGGRLRVAGIDPSRERTRLAARIGVVFGQRTTLWWDLPLIDSYRLMHRMYRIPDGRYRENLDRCVELLELGDLLDVPVRQLSLGQRMRGDIAAALLHDPEVLYLDEPTIGLDVISKARVREFLRELNAERGTTVLLTTHDLQDIEQLCGRVMVIDHGRLMYDGPLAGLHEVGDSERTLVVDLARELPPIEAAPARVVKVEGPRQWLAFPASESAAPLVARIAAAYPLVDLSVREPDIEAVIAKMLQSMGDTPQPPPEQAEHVVSLEHHHHHH”, the “soluble on expression in E. coli” value was “soluble”. In the case of “MPDLFFVTLYDRQDLLKESMTFLNSEWPRSDGSREHSQKKSCRQSPPMSFLLLNKENDEILGHSRITHLPNRDHALWIESVMIKKDQRGLGLGKFLMKSTEKWMTEKGFNEAYLSTDDQCRFYESLGYEKCDPIVHSTTATCIFPAMNHFQNAAASNPSFLSKIAQPSASSTVSASAPPPPPPPPMAPKMVTRSTSPIVDVNTIDHQYMRKWLKPTE”, the “soluble on expression in E. coli” value is reported as “soluble”. With “MPDQISVSEFVAETLEDYKAPTASSFTRTAQCRNTAAAIEEDAVTYDDVHVNFTREEWNLLHPSQKSLYKDVMLETYWNLTVIGYTWENHHIERHCQSSRRNERFSLHCQLP” the “soluble on expression in E. coli” value was “not soluble”.
